Experimental data published in paper PMC9798557 (Journal of Hematology & Oncology, 2022).

Target: T1, human CD38 (Homo sapiens, UniProt P28907)
T1 construct: CD38, human; Used for both the SPR and the cryo-EM complex; probably a soluble extracellular form
Test: SPR; Biacore 8 K
Settings: both partners purified

B1: daratumumab (antibody, V domains shown)
VH: EVQLLESGGGLVQPGGSLRLSCAVSGFTFNSFAMSWVRQAPGKGLEWVSAISGSGGGTYYADSVKGRFTISRDNSKNTLYLQMNSLRAEDTAVYFCAKDKILWFGEPVFDYWGQGTLVTVSS
VL: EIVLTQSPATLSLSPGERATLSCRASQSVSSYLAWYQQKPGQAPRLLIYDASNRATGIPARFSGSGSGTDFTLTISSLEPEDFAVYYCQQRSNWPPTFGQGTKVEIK
notes: heavy chain of daratumumab; light chain of daratumumab; Marketed anti-CD38 mAb used as a comparator
  Kd: 3.84 nM
